Assay results: paper PMC5414288, “^99mTc-radiolabeled GE11-modified peptide for ovarian tumor targeting” (DARU Journal of Pharmaceutical Sciences, 2017)

How the values were obtained:
[1] = Stability in human serum; type: in vitro ADME; conditions: fresh human serum (100 μl to 20 μl reaction mixture), 37 °C, 4 h, acetonitrile/ethanol precipitation, RP-HPLC
Description: Serum stability of the peptide was also determined following addition of 100 μl of fresh human serum to 20 μl of the reaction mixture and incubation for 1 and 4 h at 37 °C. Plasma samples were then treated with 500 μl of a mixture of acetonitrile and ethanol (1:1), centrifuged (14,000 rpm, 6 min), filtered (0.22 μm) and degradation of the radiolabeled peptide was assessed in supernatant by RP-HPLC [24].

[2] = Biodistribution study in normal mice; type: in vivo; conditions: normal female NMRI mice, 1 μg i.v., mean ± SD, n = 4
Description: Normal female NMRI mice (20–30 g, Mazandaran animal center institute, Sari, Iran) were used in this study and randomly divided into 3 groups of 4. 100 μL of the solution containing 1 μg of the radiolabeled peptide was intravenously injected to the tail vein of each mouse. Mice were euthanized through intraperitoneal injection of ketamine and xylazine at 1, 4 and 24 h after injection. Blood was collected from the heart after deep anesthesia by a syringe which had been washed with heparin. Thereafter, organ samples including; lungs, stomach, liver, kidneys, bone, muscle, salivary glands, heart, spleen and intestines were removed, weighted and the radioactivity of each sample was measured. The tissue uptake of all organs except intestine was calculated as percent of injected dose per gram tissue (% ID/g) and for the intestine was calculated as % ID of the whole sample.

[3] = test system: SKOV3 human ovarian cancer xenografts; assay: Biodistribution study in nude mice bearing SKOV3 xenografts; type: in vivo; conditions: female nude mice bearing SKOV3 xenograft, 1 μg i.v.; for Blood uptake / Bone uptake / Heart uptake / Intestine uptake / Kidney uptake / Liver uptake / Lung uptake / Muscle uptake / Spleen uptake / Stomach uptake / Tumor uptake / s.g & Th. (salivary gland and thyroid) uptake: mean ± SD
Description: The in vivo tumor-targeting of the radiolabeled peptide was studied in female nude mice bearing SKOV3 cancer xenografts. For tumor induction, 10 × 10^6 SKOV3 cells were subcutaneously injected into the right hind leg of nude mice and tumor was allowed to grow for about 4 weeks. In the day of experiment, the average tumor size was 0.63 ± 0.2 g and the mice were randomly divided into three groups of 4 mouse each. The mice were injected intravenously 1 μg of the radiolabelled peptide. At 1 h and 4 h after injection, the mice were sacrificed and the tumor and other tissues were dissected. Blocking experiment was also performed using three nude mice which were subjected to injection of the excess amount (500 μg/50 μl) of the unlabeled peptide 30 min before radioconjugate peptide injection.

[4] = 4 h p.i., blocked with excess unlabeled peptide (500 μg) 0.5 h before, n = 3

For CC[C@H](C)[C@H](NC(=O)[C@@H](NC(=O)[C@H](CC(N)=O)NC(=O)[C@H](CCC(N)=O)NC(=O)[C@@H]1CCCN1C(=O)[C@@H](NC(=O)[C@H](Cc1ccc(O)cc1)NC(=O)CNC(=O)[C@H](Cc1ccc(O)cc1)NC(=O)[C@H](Cc1c[nH]c2ccccc12)NC(=O)[C@H](Cc1c[nH]cn1)NC(=O)[C@H](Cc1ccc(O)cc1)NC(=O)[C@H](CO)NC(=O)[C@H](CO)NC(=O)[C@H](CO)NC(=O)c1ccc(NN)nc1)[C@@H](C)O)C(C)C)C(=O)O [^99mTc-tricine-HYNIC-SSS-GE11, metal not drawn], the “Stability in human serum” value [1] was 96%, the Blood uptake ([2]; 1 h p.i.) was 0.84 ± 0.04 % ID/g and the Bone uptake ([2]; 1 h p.i.) was 0.97 ± 0.14 % ID/g. The Heart uptake ([2]; 1 h p.i.) was 0.76 ± 0.16 % ID/g, the Kidney uptake ([2]; 1 h p.i.) was 24.5 ± 1.7 % ID/g and the Liver uptake ([2]; 1 h p.i.) was 2.88 ± 0.84 % ID/g. The Lung uptake ([2]; 1 h p.i.) was 1.14 ± 0.63 % ID/g, the Muscle uptake ([2]; 1 h p.i.) was 0.52 ± 0.14 % ID/g and the Spleen uptake ([2]; 1 h p.i.) was 0.61 ± 0.14 % ID/g. The Stomach uptake ([2]; 1 h p.i.) was 0.91 ± 0.27 % ID/g, the “s.g & Th. (salivary gland and thyroid) uptake” value ([2]; 1 h p.i.) was 0.87 ± 0.15 % ID/g and the Blood uptake ([2]; 4 h p.i.) was “less than 1 % ID/g”. It also gave a Bone uptake ([2]; 4 h p.i.) of 0.57 ± 0.2 % ID/g, a Heart uptake ([2]; 4 h p.i.) of 0.44 ± 0.18 % ID/g and a Kidney uptake ([2]; 4 h p.i.) of 17.5 ± 1.25 % ID/g. It also gave a Liver uptake ([2]; 4 h p.i.) of 2.05 ± 0.39 % ID/g, a Lung uptake ([2]; 4 h p.i.) of 0.68 ± 0.23 % ID/g and a Muscle uptake ([2]; 4 h p.i.) of 0.23 ± 0.11 % ID/g. The Spleen uptake ([2]; 4 h p.i.) was 0.41 ± 0.13 % ID/g, the Stomach uptake ([2]; 4 h p.i.) was 0.57 ± 0.15 % ID/g and the “s.g & Th. (salivary gland and thyroid) uptake” value ([2]; 4 h p.i.) was 0.46 ± 0.22 % ID/g. The Blood uptake ([2]; 4 h p.i., listed as 99mTc-Tricine-HYNIC-SSS-GE11) was 0.39 ± 0.11 % ID/g, the Blood uptake ([2]; 24 h p.i.) was 0.18 ± 0.05 % ID/g and the Bone uptake ([2]; 24 h p.i.) was 0.28 ± 0.05 % ID/g. The Heart uptake ([2]; 24 h p.i.) was 0.40 ± 0.2 % ID/g, the Kidney uptake ([2]; 24 h p.i.) was 3.55 ± 0.38 % ID/g and the Liver uptake ([2]; 24 h p.i.) was 0.33 ± 0.069 % ID/g. The Lung uptake ([2]; 24 h p.i.) was 0.47 ± 0.09 % ID/g, the Muscle uptake ([2]; 24 h p.i.) was 0.19 ± 0.05 % ID/g and the Spleen uptake ([2]; 24 h p.i.) was 0.20 ± 0.06 % ID/g. The Stomach uptake ([2]; 24 h p.i.) was 0.32 ± 0.19 % ID/g, the “s.g & Th. (salivary gland and thyroid) uptake” value ([2]; 24 h p.i.) was 0.36 ± 0.12 % ID/g and the Blood uptake ([3]; 1 h p.i., n = 4) was 2.53 ± 0.51 % ID/g. The Bone uptake ([3]; 1 h p.i., n = 4) was 1.91 ± 0.53 % ID/g, the Heart uptake ([3]; 1 h p.i., n = 4) was 2.40 ± 0.96 % ID/g and the Intestine uptake ([3]; 1 h p.i., n = 4) was 8.38 ± 4.11 % ID/g. For the same compound, the Kidney uptake ([3]; 1 h p.i., n = 4) was 64.95 ± 7.81 % ID/g, the Liver uptake ([3]; 1 h p.i., n = 4) was 6.93 ± 0.95 % ID/g and the Lung uptake ([3]; 1 h p.i., n = 4) was 3.39 ± 0.64 % ID/g. The Muscle uptake ([3]; 1 h p.i., n = 4) was 0.99 ± 0.21 % ID/g, the Spleen uptake ([3]; 1 h p.i., n = 4) was 2.86 ± 0.17 % ID/g and the Stomach uptake ([3]; 1 h p.i., n = 4) was 2.65 ± 0.66 % ID/g. For the same compound, the Tumor uptake ([3]; 1 h p.i., n = 4) was 2.33 ± 0.67 % ID/g, the “s.g & Th. (salivary gland and thyroid) uptake” value ([3]; 1 h p.i., n = 4) was 2.52 ± 0.82 % ID/g and the “Tumor/Blood Ratio” value ([3]; 1 h p.i., n = 4) was 0.92. The “Tumor/Bone Ratio” value ([3]; 1 h p.i., n = 4) was 1.2, the “Tumor/Muscle Ratio” value ([3]; 1 h p.i., n = 4) was 2.3 and the Blood uptake [3, 4] was 0.99 ± 0.18 % ID/g. The Bone uptake [3, 4] was 1.01 ± 0.11 % ID/g, the Heart uptake [3, 4] was 0.65 ± 0.1 % ID/g and the Intestine uptake [3, 4] was 3.83 ± 2.1 % ID/g. The Kidney uptake [3, 4] was 42.10 ± 4.39 % ID/g, the Liver uptake [3, 4] was 3.28 ± 0.93 % ID/g and the Lung uptake [3, 4] was 1.24 ± 0.12 % ID/g. For the same compound, the Muscle uptake [3, 4] was 0.51 ± 0.07 % ID/g, the Spleen uptake [3, 4] was 0.83 ± 0.1 % ID/g and the Stomach uptake [3, 4] was 1.16 ± 0.11 % ID/g. For the same compound, the Tumor uptake [3, 4] was 0.93 ± 0.10 % ID/g, the “s.g & Th. (salivary gland and thyroid) uptake” value [3, 4] was 0.89 ± 0.16 % ID/g and the “Tumor/Blood Ratio” value [3, 4] was 0.96. For the same compound, the “Tumor/Bone Ratio” value [3, 4] was 0.92, the “Tumor/Muscle Ratio” value [3, 4] was 1.86 and the Blood uptake ([3]; 4 h p.i., n = 4) was 1.43 ± 0.18 % ID/g. For the same compound, the Bone uptake ([3]; 4 h p.i., n = 4) was 1.29 ± 0.29 % ID/g, the Heart uptake ([3]; 4 h p.i., n = 4) was 1.56 ± 0.37 % ID/g and the Intestine uptake ([3]; 4 h p.i., n = 4) was 3.24 ± 0.9 % ID/g. It also gave a Kidney uptake ([3]; 4 h p.i., n = 4) of 57.90 ± 0.49 % ID/g, a Liver uptake ([3]; 4 h p.i., n = 4) of 4.64 ± 0.69 % ID/g and a Lung uptake ([3]; 4 h p.i., n = 4) of 1.79 ± 0.34 % ID/g. For the same compound, the Muscle uptake ([3]; 4 h p.i., n = 4) was 0.51 ± 0.14 % ID/g, the Spleen uptake ([3]; 4 h p.i., n = 4) was 1.49 ± 0.32 % ID/g and the Stomach uptake ([3]; 4 h p.i., n = 4) was 1.53 ± 0.16 % ID/g. The Tumor uptake ([3]; 4 h p.i., n = 4) was 1.66 ± 0.41 % ID/g, the “s.g & Th. (salivary gland and thyroid) uptake” value ([3]; 4 h p.i., n = 4) was 1.80 ± 0.21 % ID/g and the “Tumor/Blood Ratio” value ([3]; 4 h p.i., n = 4) was 1.17. For the same compound, the “Tumor/Bone Ratio” value ([3]; 4 h p.i., n = 4) was 1.3 and the “Tumor/Muscle Ratio” value ([3]; 4 h p.i., n = 4) was 3.42.
